Measured values from article PMC12661985, “USP25 deubiquitinates cytosolic METTL3 to impede glioma proliferation via an m6A-independent pathway” (iScience, 2025).

T1: His-USP25 (human, UniProt Q9UHP3 1-1055)
T1 construct: USP25, human; also called pGEX-4T-1-His-USP25; source: E. coli BL21, purified
T1 sequence (looked up): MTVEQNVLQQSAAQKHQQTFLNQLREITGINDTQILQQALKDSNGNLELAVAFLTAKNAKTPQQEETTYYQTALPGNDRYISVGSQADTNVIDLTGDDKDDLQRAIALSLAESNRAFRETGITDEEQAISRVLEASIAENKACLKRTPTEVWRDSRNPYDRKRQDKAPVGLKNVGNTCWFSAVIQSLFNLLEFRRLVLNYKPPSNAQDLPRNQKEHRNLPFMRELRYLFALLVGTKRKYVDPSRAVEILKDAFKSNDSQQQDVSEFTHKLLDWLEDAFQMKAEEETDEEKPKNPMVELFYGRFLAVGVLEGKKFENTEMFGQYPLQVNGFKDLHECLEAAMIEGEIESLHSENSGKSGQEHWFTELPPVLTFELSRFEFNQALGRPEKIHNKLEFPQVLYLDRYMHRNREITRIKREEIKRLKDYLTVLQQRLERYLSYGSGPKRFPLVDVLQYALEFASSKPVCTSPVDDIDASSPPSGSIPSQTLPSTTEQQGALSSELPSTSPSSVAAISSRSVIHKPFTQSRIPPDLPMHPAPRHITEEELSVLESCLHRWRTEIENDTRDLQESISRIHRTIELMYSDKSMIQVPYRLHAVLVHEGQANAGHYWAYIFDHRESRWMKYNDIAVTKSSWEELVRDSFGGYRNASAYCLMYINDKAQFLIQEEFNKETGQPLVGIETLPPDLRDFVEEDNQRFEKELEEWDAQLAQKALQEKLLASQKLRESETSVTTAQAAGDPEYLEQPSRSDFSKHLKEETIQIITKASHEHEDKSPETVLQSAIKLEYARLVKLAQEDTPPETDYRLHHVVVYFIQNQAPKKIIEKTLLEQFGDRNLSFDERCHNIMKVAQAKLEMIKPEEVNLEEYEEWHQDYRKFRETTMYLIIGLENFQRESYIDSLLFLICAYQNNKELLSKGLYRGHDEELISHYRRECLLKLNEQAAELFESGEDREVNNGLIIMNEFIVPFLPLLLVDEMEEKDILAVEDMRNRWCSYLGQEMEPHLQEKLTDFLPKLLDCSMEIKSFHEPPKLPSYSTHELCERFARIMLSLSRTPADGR


Assays:
[1] = target: T2, His-METTL3 (human, UniProt Q86U44 1-580); assay: pull-down; about 10 ug GST fusion protein on glutathione Sepharose incubated with recombinant His-tagged protein, 2 h at 4 C, six washes with NETN buffer; blot with His antibodies; conditions: both partners purified
T2 construct: METTL3, human; also called pGEX-4T-1-His-METTL3; source: E. coli BL21, purified

[2] = target: T1, His-USP25; assay: as above; conditions: both partners purified

T2 sequence (Q86U44 whole entry, the tested form may be a part): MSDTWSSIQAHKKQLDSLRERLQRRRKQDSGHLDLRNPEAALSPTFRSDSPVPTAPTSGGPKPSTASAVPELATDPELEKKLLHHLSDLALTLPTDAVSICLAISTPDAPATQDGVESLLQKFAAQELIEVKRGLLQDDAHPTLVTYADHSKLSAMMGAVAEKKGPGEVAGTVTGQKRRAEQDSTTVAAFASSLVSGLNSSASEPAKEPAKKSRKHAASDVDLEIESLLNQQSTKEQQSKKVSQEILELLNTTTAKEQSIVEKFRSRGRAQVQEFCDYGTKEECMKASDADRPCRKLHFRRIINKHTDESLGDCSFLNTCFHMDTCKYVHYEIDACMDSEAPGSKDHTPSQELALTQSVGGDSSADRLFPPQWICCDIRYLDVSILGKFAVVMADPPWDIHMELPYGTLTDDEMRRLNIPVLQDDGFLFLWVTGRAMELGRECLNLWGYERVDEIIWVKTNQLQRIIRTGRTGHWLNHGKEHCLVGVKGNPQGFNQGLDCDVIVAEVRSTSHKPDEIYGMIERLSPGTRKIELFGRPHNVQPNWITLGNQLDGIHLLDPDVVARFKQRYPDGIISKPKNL

| binding result [1] | binding result [2] | Binder |
| --- | --- | --- |
| binds | – | GST-USP25-166-718 (domain or fragment, human, UniProt Q9UHP3 166-718, looked up, USP25, human, USP domain, residues 166-718; also called USP domain (aa 166-718) of USP25; pGEX-4T-1-GST-USP25-166-718; source: E. coli BL21, purified (glutathione Sepharose)) KAPVGLKNVGNTCWFSAVIQSLFNLLEFRRLVLNYKPPSNAQDLPRNQKEHRNLPFMRELRYLFALLVGTKRKYVDPSRAVEILKDAFKSNDSQQQDVSEFTHKLLDWLEDAFQMKAEEETDEEKPKNPMVELFYGRFLAVGVLEGKKFENTEMFGQYPLQVNGFKDLHECLEAAMIEGEIESLHSENSGKSGQEHWFTELPPVLTFELSRFEFNQALGRPEKIHNKLEFPQVLYLDRYMHRNREITRIKREEIKRLKDYLTVLQQRLERYLSYGSGPKRFPLVDVLQYALEFASSKPVCTSPVDDIDASSPPSGSIPSQTLPSTTEQQGALSSELPSTSPSSVAAISSRSVIHKPFTQSRIPPDLPMHPAPRHITEEELSVLESCLHRWRTEIENDTRDLQESISRIHRTIELMYSDKSMIQVPYRLHAVLVHEGQANAGHYWAYIFDHRESRWMKYNDIAVTKSSWEELVRDSFGGYRNASAYCLMYINDKAQFLIQEEFNKETGQPLVGIETLPPDLRDFVEEDNQRFEKELEEWDAQLAQKALQEKLLA |
| – | binds | GST-METTL3-425-500 (domain or fragment, human, UniProt Q86U44 425-500, looked up, METTL3, human, Interface loop, residues 425-500; also called Interface loop (aa 425-500) of METTL3; pGEX-4T-1-GST-METTL3-425-500; source: E. coli BL21, purified (glutathione Sepharose)) DGFLFLWVTGRAMELGRECLNLWGYERVDEIIWVKTNQLQRIIRTGRTGHWLNHGKEHCLVGVKGNPQGFNQGLDC |
| – | binds | GST-METTL3-369-424 (domain or fragment, human, UniProt Q86U44 369-424, looked up, METTL3, human, Gate-loop 1; source: E. coli BL21, purified (glutathione Sepharose)) FPPQWICCDIRYLDVSILGKFAVVMADPPWDIHMELPYGTLTDDEMRRLNIPVLQD |
